Assay results as given in publication PMC10397247.
Like-named read-outs stand apart in the source and are kept apart here.

Tests used:
4H331-bA = target: T1, 4H331-bA; assay: two-hybrid library CCNG1;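 further: natural log of median RNA to DNA barcode read ratio; higher means stronger binding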
T1 chain: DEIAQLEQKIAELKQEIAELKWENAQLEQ

4H3354-bA = target: T2, 4H3354-bA; assay: two-hybrid library CCNG1;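 further: natural log of median RNA to DNA barcode read ratio; higher means stronger binding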
T2 chain: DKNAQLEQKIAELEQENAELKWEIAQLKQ

4H338-bA = target: T3, 4H338-bA; assay: two-hybrid library CCNG1;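 further: natural log of median RNA to DNA barcode read ratio; higher means stronger binding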
T3 chain: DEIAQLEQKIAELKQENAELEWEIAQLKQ

4H3427-bA = target: T4, 4H3427-bA; assay: two-hybrid library CCNG1;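 further: natural log of median RNA to DNA barcode read ratio; higher means stronger binding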
T4 chain: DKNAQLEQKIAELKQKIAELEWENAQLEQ

4H3606-bA = target: T5, 4H3606-bA; assay: two-hybrid library CCNG1
T5 chain: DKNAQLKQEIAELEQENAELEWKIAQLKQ

4H370-bA = target: T6, 4H370-bA; assay: two-hybrid library CCNG1
T6 chain: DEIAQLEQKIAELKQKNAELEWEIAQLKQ

4H3782-bA = target: T7, 4H3782-bA; assay: two-hybrid library CCNG1
T7 chain: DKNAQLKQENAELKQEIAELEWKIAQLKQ

4H3843-bA = target: T8, 4H3843-bA; assay: two-hybrid library CCNG1
T8 chain: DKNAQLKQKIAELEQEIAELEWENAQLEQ

4H3855-bA = target: T9, 4H3855-bA; assay: two-hybrid library CCNG1
T9 chain: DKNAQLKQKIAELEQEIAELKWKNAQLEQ

4H4001-bA = target: T10, 4H4001-bA; assay: two-hybrid library CCNG1
T10 chain: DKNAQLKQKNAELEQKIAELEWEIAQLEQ

4H454-bA = target: T11, 4H454-bA; assay: two-hybrid library CCNG1
T11 chain: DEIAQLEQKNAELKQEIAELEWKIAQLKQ

4H462-bA = target: T12, 4H462-bA; assay: two-hybrid library CCNG1
T12 chain: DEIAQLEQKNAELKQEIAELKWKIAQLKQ

4H568-bA = target: T13, 4H568-bA; assay: two-hybrid library CCNG1
T13 chain: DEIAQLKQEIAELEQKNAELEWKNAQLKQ

4H607-bA = target: T14, 4H607-bA; assay: two-hybrid library CCNG1
T14 chain: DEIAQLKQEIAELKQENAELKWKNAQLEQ

4H687-bA = target: T15, 4H687-bA; assay: two-hybrid library CCNG1
T15 chain: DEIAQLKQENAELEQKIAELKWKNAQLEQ

4H717-bA = target: T16, 4H717-bA; assay: two-hybrid library CCNG1
T16 chain: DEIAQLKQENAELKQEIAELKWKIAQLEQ

4H72-bA = target: T17, 4H72-bA; assay: two-hybrid library CCNG1
T17 chain: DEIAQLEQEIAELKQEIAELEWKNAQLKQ

4H754-bA = target: T18, 4H754-bA; assay: two-hybrid library CCNG1
T18 chain: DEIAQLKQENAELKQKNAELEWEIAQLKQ

4H797-bA = target: T19, 4H797-bA; assay: two-hybrid library CCNG1
T19 chain: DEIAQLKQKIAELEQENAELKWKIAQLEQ

4H883-bA = target: T20, 4H883-bA; assay: two-hybrid library CCNG1
T20 chain: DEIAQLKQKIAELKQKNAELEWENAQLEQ

4H908-bA = target: T21, 4H908-bA; assay: two-hybrid library CCNG1
T21 chain: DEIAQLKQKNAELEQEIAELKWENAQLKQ

4H918-bA = target: T22, 4H918-bA; assay: two-hybrid library CCNG1
T22 chain: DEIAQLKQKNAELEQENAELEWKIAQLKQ

4H953-bA = target: T23, 4H953-bA; assay: two-hybrid library CCNG1
T23 chain: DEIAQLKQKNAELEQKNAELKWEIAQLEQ

4H967-bA = target: T24, 4H967-bA; assay: two-hybrid library CCNG1
T24 chain: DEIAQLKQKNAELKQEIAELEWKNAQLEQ

P6-AA-1HGe-A = target: T25, P6-AA-1HGe-A; assay: two-hybrid library CCmax; conditions: mean of both orientations
T25 chain: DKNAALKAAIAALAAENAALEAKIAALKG

P6-AA-1HGe-M = target: T26, P6-AA-1HGe-M; assay: two-hybrid library CCmax; conditions: mean of both orientations
T26 chain: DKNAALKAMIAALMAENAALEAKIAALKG

P6-AA-1HGe-R = target: T27, P6-AA-1HGe-R; assay: two-hybrid library CCmax; conditions: mean of both orientations
T27 chain: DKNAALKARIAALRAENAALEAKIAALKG

P6-AA-1HGe-S = target: T28, P6-AA-1HGe-S; assay: two-hybrid library CCmax; conditions: mean of both orientations
T28 chain: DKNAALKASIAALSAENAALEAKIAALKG

P6-AA-1HGe-T = target: T29, P6-AA-1HGe-T; assay: two-hybrid library CCmax; conditions: mean of both orientations
T29 chain: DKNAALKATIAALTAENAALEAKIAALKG

P6-AA-1HGe-W = target: T30, P6-AA-1HGe-W; assay: two-hybrid library CCmax; conditions: mean of both orientations
T30 chain: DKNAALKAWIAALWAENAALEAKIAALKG

Binder	interaction score (4H370-bA)	interaction score (4H3782-bA)	interaction score (4H3843-bA)	interaction score (4H4001-bA)	interaction score (4H568-bA)	interaction score (4H607-bA)	interaction score (4H687-bA)	interaction score (4H72-bA)	interaction score (4H797-bA)	interaction score (4H883-bA)	interaction score (4H918-bA)	interaction score (4H953-bA)	interaction score (4H967-bA)	also measured
DEIAQLEQKIAELKQEIAELKWENAQLEQ [4H331-bA]	-0.724	-0.0209	0.72	0.0797	-0.11	-1.42	-0.899	1.23	-0.644	-0.483	-0.884	-1.28	-1.16	interaction score (4H331-bA): -0.244; interaction score (4H3354-bA): -0.749; interaction score (4H338-bA): -0.867; interaction score (4H3427-bA): 0.677; interaction score (4H3606-bA): -0.929; interaction score (4H3855-bA): 0.317; interaction score (4H454-bA): 0.885; interaction score (4H462-bA; mean of both orientations): -0.426; interaction score (4H717-bA): -1.06; interaction score (4H754-bA): -0.893; interaction score (4H908-bA): -1.83
DKNAQLKQEIAELEQENAELEWKIAQLKQ [4H3606-bA]	1.25	0.289	-0.812	-0.523	-0.435	-0.936	-0.711	-2.04	-1.09	0.708	-0.427	0.309	0.947	interaction score (4H3606-bA; mean of both orientations): -0.112; interaction score (4H462-bA): -1.18
DENAALEAHIAALHAKNAALKAEIAALEG [P5-AA-1HGe-H]														interaction score (P6-AA-1HGe-A): 1.88; interaction score (P6-AA-1HGe-M): 1.95; interaction score (P6-AA-1HGe-R): 1.63; interaction score (P6-AA-1HGe-S): 1.02; interaction score (P6-AA-1HGe-T): 1.88; interaction score (P6-AA-1HGe-W): 0.42
